Test results: FireProtDB (doi:10.1002/prot.340220405)

Details: Escherichia coli (strain K12); pH 8; 25 °C; Urea; CD; Na-PIPES 50 mM; reversible: yes; whole UniProt chain shown

B1: Chemotaxis protein CheY wild type, P0AE67 (protein)
chain: MADKELKFLVVDDFSTMRRIVRNLLKELGFNNVEEAEDGVDALNKLQAGGYGFVISDWNMPNMDGLELLKTIRADGAMSALPVLMVTAEAKKENIIAAAQAGASGYVVKPFTAATLEEKLNKIFEKLGM
- denaturant m value: 1.6 kcal/mol/M
- denaturant midpoint (higher = more stable): 3.5 M
- unfolding free energy: 5.6 kcal/mol
